The results in this text go back to US20200317768A1 (published 2020).

Holding throughout (assay): SPR (BIACORE), captured antibody, FcgR as analyte
Background: In SPR one partner is held on a chip, and binding of the other changes the refractive index at the surface.

Assay [1] addresses T1, cynomolgus monkey FcγRIIa2 extracellular domain, His-tagged (cynomolgus monkey).
T1 construct: also called cyno FcγRIIa2; cynoFcgRIIa2; not shown: C-terminal His-tag
T1 chain: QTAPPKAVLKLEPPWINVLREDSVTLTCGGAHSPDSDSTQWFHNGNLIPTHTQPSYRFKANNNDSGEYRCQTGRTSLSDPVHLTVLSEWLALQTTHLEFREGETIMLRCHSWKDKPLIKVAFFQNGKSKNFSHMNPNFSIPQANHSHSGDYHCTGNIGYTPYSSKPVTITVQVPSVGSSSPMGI
On the procedure: (§1) The kinetic analysis of interactions between these antibodies and FcγR was carried out using BIACORE® T200 or BIACORE® 4000 (GE Healthcare). HBS-EP+ (GE Healthcare) was used as the running buffer, and the measurement temperature was set to 25° C. A chip produced by immobilizing Protein A. Protein A/G or mouse anti-human IgG kappa light chain (BD Biosciences) onto a Series S Sensor Chip CM4 or CM5 (GE Healthcare) by the amine-coupling method was used. […] After the measurement, the antibody captured on the chip was washed off by allowing reaction with 10 mM glycine-HCl, pH1.5 and 25 mM NaOH so that the chip was regenerated and used repeatedly. The sensorgrams obtained as measurement results were analyzed by the 1:1 Langmuir binding model using the BIACORE® Evaluation Software to calculate the binding rate constant ka (L/mol/s) and dissociation rate constant kd (l/s), and the dissociation constant KD (mol/L) was calculated from these values. […] Regarding such interactions, KD values were calculated using the following 1:1 binding model described in BIACORE® T100 Software Handbook BR1006-48 Edition AE.

Assay [2] addresses T2, cynomolgus monkey FcγRIIb extracellular domain, His-tagged (cynomolgus monkey).
T2 construct: also called cyno FcγRIIb; cynoFcγRIIb; not shown: C-terminal His-tag
T2 chain: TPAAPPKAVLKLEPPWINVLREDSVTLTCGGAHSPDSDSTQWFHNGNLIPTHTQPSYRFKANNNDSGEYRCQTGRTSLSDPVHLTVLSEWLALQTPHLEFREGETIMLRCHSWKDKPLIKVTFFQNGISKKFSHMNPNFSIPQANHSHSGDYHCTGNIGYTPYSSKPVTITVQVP
On the procedure: as §1

Assay [3] has as its target T3, human FcγRIIb extracellular domain, His-tagged (human, UniProt P31994 43-217).
T3 construct: also called FcgRIIb (human); not shown: C-terminal His-tag
T3 sequence: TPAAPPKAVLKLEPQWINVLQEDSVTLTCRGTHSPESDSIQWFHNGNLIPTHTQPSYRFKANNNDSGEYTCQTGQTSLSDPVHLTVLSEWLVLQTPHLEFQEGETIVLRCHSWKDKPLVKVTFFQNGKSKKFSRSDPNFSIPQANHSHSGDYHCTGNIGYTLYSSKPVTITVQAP
As to the method: as §1

The target of assay [4] is T4, human FcγRIIIaV extracellular domain, His-tagged (human, UniProt P08637 17-208).
T4 construct: also called FcgRIIIaV; not shown: C-terminal His-tag
As to the method:
as §1

Assay [5] concerns the target T5, cynomolgus monkey FcγRIIIaS extracellular domain, His-tagged (cynomolgus monkey, UniProt Q8SPW2 21-206 at identity 1.00)).
T5 construct: also called cyno FcγRIIIaS; cynoFcγRIIIaS; not shown: C-terminal His-tag
T5 chain: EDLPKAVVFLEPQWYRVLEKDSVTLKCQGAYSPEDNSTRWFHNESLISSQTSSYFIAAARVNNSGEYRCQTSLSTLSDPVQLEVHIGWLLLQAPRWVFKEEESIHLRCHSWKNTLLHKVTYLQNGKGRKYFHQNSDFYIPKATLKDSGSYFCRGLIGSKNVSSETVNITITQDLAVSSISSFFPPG
On the procedure:
as §1

In assay [6] the target is T6, cynomolgus monkey FcγRIIa3 extracellular domain, His-tagged (cynomolgus monkey).
T6 construct: also called cyno FcγRIIa3; cynoFcgRIIa3; not shown: C-terminal His-tag
T6 chain: T1 chain with K127I, N130K, H133P, Q142R
As to the method:
as §1

Assay [7] addresses T7, human FcγRIIaH extracellular domain, His-tagged (human, UniProt P12318 34-217).
T7 construct: also called human FcγRIIa (type H); FcgRIIaH; not shown: C-terminal His-tag
T7 sequence: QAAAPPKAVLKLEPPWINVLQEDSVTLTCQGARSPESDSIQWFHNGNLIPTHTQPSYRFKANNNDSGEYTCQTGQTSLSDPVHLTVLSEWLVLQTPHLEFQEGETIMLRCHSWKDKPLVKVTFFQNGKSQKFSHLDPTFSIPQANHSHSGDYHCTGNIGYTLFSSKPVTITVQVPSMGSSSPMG
On the procedure:
as §1

In assay [8] the target is T8, cynomolgus monkey FcγRIIa1 extracellular domain, His-tagged (cynomolgus monkey).
T8 construct: also called cyno FcγRIIa1; cynoFcgRIIa1; not shown: C-terminal His-tag
T8 chain: T1 chain with T95P, A121T, K127I, S128A, N130K, N135D, Q142R
On the procedure: as §1

Assay [9] deals with T9, human FcγRIIaR extracellular domain, His-tagged (human, UniProt P12318 34-217).
T9 construct: also called human FcγRIIa (type R); FcgRIIaR; not shown: C-terminal His-tag
T9 chain: T7 sequence with H134R
On the procedure:
as §1

Residue numbers refer to the chain shown, from its start.

T4 sequence (P08637 17-208 F176V): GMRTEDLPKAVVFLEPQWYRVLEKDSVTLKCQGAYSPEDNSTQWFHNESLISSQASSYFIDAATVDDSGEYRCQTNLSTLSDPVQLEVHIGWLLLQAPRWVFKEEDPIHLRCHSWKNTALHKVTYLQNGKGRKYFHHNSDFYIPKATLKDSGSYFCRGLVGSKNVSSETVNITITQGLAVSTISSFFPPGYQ

B1: MS_M103205H795-SG1/M103202L889-SK1 (antibody, human IgG1, kappa)
heavy: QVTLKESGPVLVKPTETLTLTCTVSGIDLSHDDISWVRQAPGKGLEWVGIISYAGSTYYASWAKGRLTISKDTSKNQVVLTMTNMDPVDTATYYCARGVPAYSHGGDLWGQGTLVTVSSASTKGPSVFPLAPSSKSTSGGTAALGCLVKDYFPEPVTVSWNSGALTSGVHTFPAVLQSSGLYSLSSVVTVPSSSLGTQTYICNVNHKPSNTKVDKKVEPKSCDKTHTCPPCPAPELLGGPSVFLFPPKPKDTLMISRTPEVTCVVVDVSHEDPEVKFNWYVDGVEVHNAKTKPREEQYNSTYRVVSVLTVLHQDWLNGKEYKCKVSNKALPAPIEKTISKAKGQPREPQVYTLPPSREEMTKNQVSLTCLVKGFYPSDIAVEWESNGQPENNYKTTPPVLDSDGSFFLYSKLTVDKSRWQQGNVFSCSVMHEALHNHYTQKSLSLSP
light: DIVMTQSPATLSLSPGERATLSCTSSQSVYHANWLSWFQQKPGQPPKLLIYWASTLAYGVPSRFSGSGSGTDFTLTISSLQPEDAATYYCAGGYGGGRYAFGQGTKVEIKRTVAAPSVFIFPPSDEQLKSGTASVVCLLNNFYPREAKVQWKVDNALQSGNSQESVTEQDSKDSTYSLSSTLTLSKADYEKHKVYACEVTHQGLSSPVTKSFNRGEC
notes: Parent antibody with heavy chain constant region SG1; also called MS1032LO06-SG1; copies: 2 + 2
One may read the Kd as the equilibrium constant for the complex coming apart. As to B1, the dissociation constant Kd in assay [1] came to 5100 nM; in assay [2] it was 1800 nM; in assay [3], 4600 nM; in assay [4], 810 nM; in assay [5], 360 nM; in [6] it was 17000 nM. The Kd in assay [7] turned out to be 690 nM; in [8], 3200 nM; in assay [9] it was 1100 nM.

B2: M103205H795-MY265/M103202L889-SK1 (antibody, human IgG1, kappa)
heavy: QVTLKESGPVLVKPTETLTLTCTVSGIDLSHDDISWVRQAPGKGLEWVGIISYAGSTYYASWAKGRLTISKDTSKNQVVLTMTNMDPVDTATYYCARGVPAYSHGGDLWGQGTLVTVSSASTKGPSVFPLAPSSKSTSGGTAALGCLVKDYFPEPVTVSWNSGALTSGVHTFPAVLQSSGLYSLSSVVTVPSSSLGTQTYICNVNHKPSNTKVDKKVEPKSCDKTHTCPPCPAPELLTGPSVFLFPPKPKDTLMISRTPEVTCVVVDVSDEDPEVKFNWYVDGVEVHNAKTKPREEQYNSTYRVVSVLTVLHQDWLNGKEYKCKVSNKALPKPIEKTISKAKGQPREPQVYTLPPSREEMTKNQVSLTCLVKGFYPSDIAVEWESNGQPENNYKTTPPVLDSDGSFFLYSKLTVDKSRWQQGNVFSCSVMHEALHNHYTQKSLSLSP
light: B1 light
notes: also called MS103205H795-MY265; copies: 2 + 2
Take B2: the equilibrium dissociation constant (Kd) in [1] came out at 1900 nM; in [2], 590 nM; in [3], 2200 nM; in assay [4], 54000 nM; in assay [5], 2000 nM; in assay [6], 4800 nM. Besides, the Kd was found to be 210 nM in [7], 2200 nM in assay [8] and 440 nM in assay [9].

B3: M103205H795-MY447/M103202L889-SK1 (antibody, human IgG1, kappa)
heavy: B2 heavy with P234I
light: B1 light
notes: copies: 2 + 2
Regarding B3, the equilibrium dissociation constant (Kd) in assay [1] was determined as 880 nM; in assay [2] it was 230 nM; in assay [3] it was 440 nM; in [4] it was 4000 nM; in assay [5], 1100 nM; in assay [6] it was 1050 nM. For the same molecule, the Kd in [7] is 97 nM; in [8] it was 990 nM; in assay [9], 98 nM.

B4: M103205H795-MY442/M103202L889-SK1 (antibody, human IgG1, kappa)
heavy: B2 heavy with P234D
light: B1 light
notes: copies: 2 + 2
As to B4, the Kd in assay [1] amounted to 4200 nM; in assay [2], 1100 nM; in assay [3], 1800 nM; in assay [4], 4700 nM; in assay [5], 2100 nM; in assay [6], 6800 nM. Moreover, the Kd in assay [7] is 460 nM; in [8], 4400 nM; in assay [9], 420 nM.

B5: M103205H795-MY441/M103202L889-SK1 (antibody, human IgG1, kappa)
heavy: B2 heavy with P234A
light: B1 light
notes: copies: 2 + 2
B5: the Kd in assay [1] is 3300 nM; in assay [2], 880 nM; in assay [3], 2800 nM; in assay [4] it was 8100 nM; in assay [5], 2600 nM; in [6], 8000 nM. In addition, the equilibrium dissociation constant (Kd) in assay [7] was determined as 360 nM; in assay [8], 3800 nM; in assay [9], 650 nM.

B6: M103205H795-MY445/M103202L889-SK1 (antibody, human IgG1, kappa)
heavy: B2 heavy with P234G
light: B1 light
notes: copies: 2 + 2
B6: the dissociation constant (Kd) was determined as 5500 nM in [1]; 1400 nM in assay [2]; 4200 nM in assay [3]; 9500 nM in [4]; 3500 nM in assay [5]; 14000 nM in assay [6]. Further, the figures for the dissociation constant Kd in assay [7], in [8] and in [9] were 560 nM, 5600 nM and 1200 nM, respectively.

B7: M103205H795-MY446/M103202L889-SK1 (antibody, human IgG1, kappa)
heavy: B2 heavy with P234H
light: B1 light
notes: copies: 2 + 2
For B7, the dissociation constant Kd came out at 2200 nM in assay [1]; 630 nM in assay [2]; 2400 nM in assay [3]; 7100 nM in assay [4]; 2900 nM in assay [5]; 4700 nM in [6]. Also, the Kd in assay [7] turned out to be 260 nM; in assay [8], 2500 nM; in [9], 480 nM.

B8: M103205H795-MY443/M103202L889-SK1 (antibody, human IgG1, kappa)
heavy: B2 heavy with P234E
light: B1 light
notes: copies: 2 + 2
As for B8, the Kd in assay [1] turned out to be 5000 nM; in assay [2], 1200 nM; in assay [3], 2800 nM; in assay [4], 5900 nM; in [5], 2600 nM; in [6], 8800 nM. The Kd in assay [7] came out at 530 nM; in [8], 4800 nM; in assay [9] it was 640 nM.

B9: M103205H795-MY444/M103202L889-SK1 (antibody, human IgG1, kappa)
heavy: B2 heavy with P234F
light: B1 light
notes: copies: 2 + 2
Turning to B9, the Kd stood at 1100 nM in assay [1]; 300 nM in [2]; 740 nM in assay [3]; 5200 nM in assay [4]; 1600 nM in assay [5]; 1900 nM in assay [6]. Further, the Kd in assay [7] worked out at 110 nM; in assay [8] it was 1200 nM; in [9] it was 140 nM.
